Results on one substance are retold here after article PMC9037526.

One may read the Kd as the concentration at which binding is half-saturated. Low readings indicate a tighter complex, high ones a looser complex.

In the experiment the target is Vip3Aa protoxin (proVip3Aa, without Flag tag) (Bacillus thuringiensis). The experiment in a line: MST; labeled proVip3Aa (333 nM) or labeled actVip3Aa (216 nM) kept constant, GST-PHB2 titrated from 0.2 nM to 7 μM; PBS pH 7.5; Monolith NT.115 Pico.

“GST-PHB2 (prohibitin 2 of Spodoptera frugiperda fused to glutathione-S-transferase) (natural protein)” gave a dissociation constant Kd of 45.9 nM.
